Data on one variant can be found in IntAct's records for PubMed 24528925.

The chains are these.
B1: Ubiquitin-conjugating enzyme E2 Z (Homo sapiens), Q9H832 (parent)
chain: MAESPTEEAATAGAGAAGPGASSVAGVVGVSGSGGGFGPPFLPDVWAAAAAAGGAGGPGSGLAPLPGLPPSAAAHGAALLSHWDPTLSSDWDGERTAPQCLLRIKRDIMSIYKEPPPGMFVVPDTVDMTKIHALITGPFDTPYEGGFFLFVFRCPPDYPIHPPRVKLMTTGNNTVRFNPNFYRNGKVCLSILGTWTGPAWSPAQSISSVLISIQSLMTENPYHNEPGFEQERHPGDSKNYNECIRHETIRVAVCDMMEGKCPCPEPLRGVMEKSFLEYYDFYEVACKDRLHLQGQTMQDPFGEKRGHFDYQSLLMRLGLIRQKVLERLHNENAEMDSDSSSSGTETDLHGSLRV

The assay covers variants of B1. Particulars: with ubd_human UBD.
For MAESPTEEAATAGAGAAGPGASSVAGVVGVSGSGGGFGPPFLPDVWAAAAAAGGAGGPGSGLAPLPGLPPSAAAHGAALLSHWDPTLSSDWDGERTAPQCLLRIKRDIMSIYKEPPPGMFVVPDTVDMTKIHALITGPFDTPYEGGFFLFVFRCPPDYPIHPPRVKLMTTGNNTVRFNPNFYRNGKVCLSILGTWTGPAWSPAQSISSVLISIQSLMTENPYHNEPGFEQERHPGDSKNYNECIRHETIRVAVCDMMEGKCPCPEPLRGVMEKSFLEYYDFYEVACKDRLHLQGQTMQDPFGEKRGHFDYQSLLMRLGLIRQRVLERLHNENAEMDSDSSSSGTETDLHGSLRV [K323R], the “effect of a mutation on the interaction” value is recorded as “decreasing interaction”.
